The values that follow come from patent US20200262916A1, “Mammalian Atg8 Proteins Control Autolysosomal Biogenesis Through SNARES” (STC. UNM, priority 2019, published 2020).

Assay [1] deals with HeLa cells stably expressing YFP-Parkin. Briefly: Parkin-dependent mitophagy, HCM quantification of mitochondrial DNA (mtDNA). The format is cell-based. Conditions: wild type HeLa-YFP-Parkin cells; CCCP 10 μM or oligomycin A 5 μM and antimycin A 10 μM; 16 hours.
In a further assay the test system is Huh7 cells. Briefly: Pexophagy, Western blot of peroxisomal proteins PEX14 and PMP70. The format is cell-based. Conditions: H2O2 0.4 mM, over a period of 6 hours. On the technique in general: Immunoblotting shows a protein as a band on a membrane.
The target of assay [2] is T1, VPS33A (endogenous, a component of the HOPS complex) (UniProt Q96AX1 1-596).
T1 sequence (looked up): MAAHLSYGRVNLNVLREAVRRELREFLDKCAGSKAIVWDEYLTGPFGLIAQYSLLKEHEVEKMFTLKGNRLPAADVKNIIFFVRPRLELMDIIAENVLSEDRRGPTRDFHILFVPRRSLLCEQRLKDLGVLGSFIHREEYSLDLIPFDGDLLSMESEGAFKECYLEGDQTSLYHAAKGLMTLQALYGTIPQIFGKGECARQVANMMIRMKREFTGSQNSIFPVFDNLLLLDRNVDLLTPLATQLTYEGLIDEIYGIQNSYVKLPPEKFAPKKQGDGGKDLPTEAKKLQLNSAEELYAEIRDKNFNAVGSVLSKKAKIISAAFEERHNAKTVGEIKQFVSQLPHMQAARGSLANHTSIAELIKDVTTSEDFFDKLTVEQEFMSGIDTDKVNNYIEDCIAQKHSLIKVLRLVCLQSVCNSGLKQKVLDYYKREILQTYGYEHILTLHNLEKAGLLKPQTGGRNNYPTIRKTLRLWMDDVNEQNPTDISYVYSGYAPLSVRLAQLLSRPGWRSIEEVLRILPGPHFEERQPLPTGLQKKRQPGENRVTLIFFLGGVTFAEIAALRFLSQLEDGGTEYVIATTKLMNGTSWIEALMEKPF
Briefly: endogenous Co-IP with mouse anti-Stx6 antibody, HeLa cells.

In the next assay the target is T2, VPS41 (endogenous) (UniProt P49754 1-854, limits assumed).
T2 construct: also called HOPS component VPS41
T2 sequence (looked up): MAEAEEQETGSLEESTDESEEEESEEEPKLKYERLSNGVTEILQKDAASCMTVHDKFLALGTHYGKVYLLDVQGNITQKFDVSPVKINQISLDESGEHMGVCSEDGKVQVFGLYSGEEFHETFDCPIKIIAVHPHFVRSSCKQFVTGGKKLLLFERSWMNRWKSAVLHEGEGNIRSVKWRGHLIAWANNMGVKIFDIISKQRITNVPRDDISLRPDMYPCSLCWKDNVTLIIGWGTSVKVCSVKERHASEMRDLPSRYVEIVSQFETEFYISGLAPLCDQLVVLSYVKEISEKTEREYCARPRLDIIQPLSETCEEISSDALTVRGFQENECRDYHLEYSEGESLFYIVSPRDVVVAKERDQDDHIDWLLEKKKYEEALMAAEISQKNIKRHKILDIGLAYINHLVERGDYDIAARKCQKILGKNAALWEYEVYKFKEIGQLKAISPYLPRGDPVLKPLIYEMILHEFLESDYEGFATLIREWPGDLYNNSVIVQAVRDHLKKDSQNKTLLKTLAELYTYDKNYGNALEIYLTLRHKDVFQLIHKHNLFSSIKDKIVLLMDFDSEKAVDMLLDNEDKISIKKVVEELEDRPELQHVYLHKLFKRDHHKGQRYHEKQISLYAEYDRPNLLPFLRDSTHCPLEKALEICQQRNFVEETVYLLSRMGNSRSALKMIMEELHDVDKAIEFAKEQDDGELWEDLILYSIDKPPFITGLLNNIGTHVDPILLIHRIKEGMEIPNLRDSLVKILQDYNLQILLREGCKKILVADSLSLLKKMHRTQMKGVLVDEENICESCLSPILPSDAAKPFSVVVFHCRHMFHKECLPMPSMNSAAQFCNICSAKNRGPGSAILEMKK
Described as above.

Regarding `N#CC(C#N)=NNc1cccc(Cl)c1` [CCCP], the “mtDNA as a measure of cellular mitochondrial content” value in assay [1] is given as “major reduction”. Take `OO` [H2O2]: the “levels of peroxisomal constituents PEX14 and PMP70” value in the assay on Huh7 cells is recorded as “decrease”.

B1: Vti1a (endogenous, in HeLa and U2OS cells) (other, UniProt Q96AJ9 1-217, looked up)
chain: MSSDFEGYEQDFAVLTAEITSKIARVPRLPPDEKKQMVANVEKQLEEAKELLEQMDLEVREIPPQSRGMYSNRMRSYKQEMGKLETDFKRSRIAYSDEVRNELLGDDGNSSENQRAHLLDNTERLERSSRRLEAGYQIAVETEQIGQEMLENLSHDREKIQRARERLRETDANLGKSSRILTGMLRRIIQNRILLVILGIIVVITILMAITFSVRRH
B1: in assay [2], the binding result is “no binding”.

B2: Stx6 (endogenous, precipitated with mouse anti-Stx6 antibody from HeLa cells) (other, UniProt O43752 2-255, looked up)
chain: SMEDPFFVVKGEVQKAVNTAQGLFQRWTELLQDPSTATREEIDWTTNELRNNLRSIEWDLEDLDETISIVEANPRKFNLDATELSIRKAFITSTRQVVRDMKDQMSTSSVQALAERKNRQALLGDSGSQNWSTGTTDKYGRLDRELQRANSHFIEEQQAQQQLIVEQQDEQLELVSGSIGVLKNMSQRIGGELEEQAVMLEDFSHELESTQSRLDNVMKKLAKVSHMTSDRRQWCAIAILFAVLLVVLILFLVL
notes: also called syntaxin 6
On to B2, for which the values for the binding result (with VPS41 (endogenous); in assay [2]) were “binds” and “no binding”, respectively.
